Laboratory results reported in PMC4950921.

Experiments:
[1] = target: EphA2 L223R/L254R/V255R mutant (UniProt P29317)
[2] = target: EphA2 L223R/L254R/V255R mutant (UniProt P29317); remark: listed apart in the source

UniProt P29317, sequence (P29317 24-976 L223R/L254R/V255R): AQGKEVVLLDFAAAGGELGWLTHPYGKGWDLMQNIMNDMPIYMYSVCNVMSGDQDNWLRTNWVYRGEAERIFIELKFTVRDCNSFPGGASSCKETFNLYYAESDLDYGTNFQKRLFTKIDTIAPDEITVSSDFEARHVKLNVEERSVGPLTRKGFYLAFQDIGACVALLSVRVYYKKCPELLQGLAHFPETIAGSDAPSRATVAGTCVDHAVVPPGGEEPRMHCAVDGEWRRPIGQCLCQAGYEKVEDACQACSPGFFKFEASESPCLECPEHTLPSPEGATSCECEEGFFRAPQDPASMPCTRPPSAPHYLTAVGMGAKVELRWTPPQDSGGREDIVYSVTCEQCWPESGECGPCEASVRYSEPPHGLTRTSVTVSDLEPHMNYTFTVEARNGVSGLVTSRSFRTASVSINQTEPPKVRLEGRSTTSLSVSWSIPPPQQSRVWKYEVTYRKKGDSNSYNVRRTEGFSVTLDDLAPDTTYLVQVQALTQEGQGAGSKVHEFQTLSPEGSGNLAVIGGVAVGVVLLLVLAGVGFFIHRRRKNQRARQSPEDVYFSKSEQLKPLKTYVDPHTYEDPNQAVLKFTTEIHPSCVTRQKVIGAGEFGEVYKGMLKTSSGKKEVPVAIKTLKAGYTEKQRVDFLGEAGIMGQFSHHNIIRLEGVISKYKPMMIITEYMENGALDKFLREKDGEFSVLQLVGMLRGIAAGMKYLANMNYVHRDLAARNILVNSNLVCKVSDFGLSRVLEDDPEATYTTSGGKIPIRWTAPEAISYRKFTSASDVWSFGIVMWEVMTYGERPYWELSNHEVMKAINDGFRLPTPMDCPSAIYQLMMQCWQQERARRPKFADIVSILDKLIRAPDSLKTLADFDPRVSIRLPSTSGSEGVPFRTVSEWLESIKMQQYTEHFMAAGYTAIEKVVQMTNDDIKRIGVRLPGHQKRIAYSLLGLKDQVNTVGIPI

YSAYPDSVPMMSGSGSK [YSA peptide with the GSGSK linker] showed a suppression of migration of transfected HEK293T cells, transwell assay, 6 uM YSA [1] of 25% and a decrease of EphA2 Ser897 phosphorylation, Western blot, HEK293T, 6 uM YSA [2] of 35%.
